IntAct's records for PubMed 23602662

B1: Cell surface glycoprotein CD200 receptor 4 (Mus musculus), Q6XJV4 (parent)
chain: MHALGRIPTLTLLIFINIFVSGSSCTDENQTIQNDSSSSLTQVNTTMSVQMDKKALLCCFSSPLINAVLITWIIKHRHLPSCTIAYNLDKKTNETSCLGRNITWASTPDHSPELQISAVALQHEGTYTCEIVTPEGNLEKVYDLQVLVPPEVTYFPGKNRTAVCEAMAGKPAAQISWTPDGDCVTKSESHSNGTVTVRSTCHWEQNNVSVVSCLVSHSTGNQSLSIELSQGTMTTPRSLLTILYVKMALLVIILLNVGFAFFQKRNFART
partner: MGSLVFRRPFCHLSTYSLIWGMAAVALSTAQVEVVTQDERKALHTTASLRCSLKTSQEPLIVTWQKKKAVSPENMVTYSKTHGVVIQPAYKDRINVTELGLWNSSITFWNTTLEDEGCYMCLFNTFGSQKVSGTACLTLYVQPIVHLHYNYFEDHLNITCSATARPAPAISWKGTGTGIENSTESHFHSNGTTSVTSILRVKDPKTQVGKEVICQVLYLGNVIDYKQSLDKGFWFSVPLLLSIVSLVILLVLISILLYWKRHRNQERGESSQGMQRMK
B2: OX-2 membrane glycoprotein (Mus musculus), O54901 (parent)
chain: B1 partner
partner: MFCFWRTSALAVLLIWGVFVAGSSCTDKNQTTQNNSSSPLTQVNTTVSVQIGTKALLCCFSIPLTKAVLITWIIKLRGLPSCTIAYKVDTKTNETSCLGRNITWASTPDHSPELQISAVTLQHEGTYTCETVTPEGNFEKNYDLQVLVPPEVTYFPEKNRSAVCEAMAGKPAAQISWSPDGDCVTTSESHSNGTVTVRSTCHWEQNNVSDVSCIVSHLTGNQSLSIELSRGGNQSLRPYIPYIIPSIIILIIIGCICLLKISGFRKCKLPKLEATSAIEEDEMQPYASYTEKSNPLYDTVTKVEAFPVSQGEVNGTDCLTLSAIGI

Variants of: B1
Settings: with ox2g_mouse Cd200, O54901

| effect of a mutation on the interaction | Variant |
| --- | --- |
| increasing interaction strength | MHALGRIPTLTLLIFINIFVSGSSCTDENQTIQNDSSSSLTQVNTTMSVQMDKKALLCCFSSPLINAVLITWIIKHRHLPSCTIAYKLDTKTNETSCLGRNITWASTPDHSPELQISAVALQHEGTYTCEIVTPEGNLEKVYDLQVLVPPEVTYFPGKNRTAVCEAMAGKPAAQISWTPDGDCVTKSESHSNGTVTVRSTCHWEQNNVSVVSCLVSHSTGNQSLSIELSQGTMTTPRSLLTILYVKMALLVIILLNVGFAFFQKRNFART [N87K;K90T] |
| increasing interaction strength | MHALGRIPTLTLLIFINIFVSGSSCTDENQTIQNDSSSSLTQVNTTMSVQMDKKALLCCFSSPLINAVLITWIIKHRHLPSCTIAYNLDKKTNETSCLGRNITWASTPDHSPELQISAVALQHEGTYTCEIVTPEGNFEKVYDLQVLVPPEVTYFPGKNRTAVCEAMAGKPAAQISWTPDGDCVTKSESHSNGTVTVRSTCHWEQNNVSVVSCLVSHSTGNQSLSIELSQGTMTTPRSLLTILYVKMALLVIILLNVGFAFFQKRNFART [L138F] |
| increasing interaction strength | MHALGRIPTLTLLIFINIFVSGSSCTDENQTIQNDSSSSLTQVNTTMSVQMDKKALLCCFSSPLINAVLITWIIKHRHLPSCTIAYKLDTKTNETSCLGRNITWASTPDHSPELQISAVALQHEGTYTCEIVTPEGNFEKVYDLQVLVPPEVTYFPGKNRTAVCEAMAGKPAAQISWTPDGDCVTKSESHSNGTVTVRSTCHWEQNNVSVVSCLVSHSTGNQSLSIELSQGTMTTPRSLLTILYVKMALLVIILLNVGFAFFQKRNFART [N87K;K90T;L138F] |

Variants of: B2
Settings: with mo2r1_mouse Cd200r1, Q9ES57

| Variant | effect of a mutation on the interaction |
| --- | --- |
| MGSLVFRRPFCHLSTYSLIWGMAAVALSTAQVEVVTQDERKALHTTASLRCSLKTSQEPLIVTWQKKKAVSPEDMVTYSKTHGVVIQPAYKDRINVTELGLWNSSITFWNTTLEDEGCYMCLFNTFGSQKVSGTACLTLYVQPIVHLHYNYFEDHLNITCSATARPAPAISWKGTGTGIENSTESHFHSNGTTSVTSILRVKDPKTQVGKEVICQVLYLGNVIDYKQSLDKGFWFSVPLLLSIVSLVILLVLISILLYWKRHRNQERGESSQGMQRMK [N74D] | disrupting interaction strength |
| MGSLVFRRPFCHLSTYSLIWGMAAVALSTAQVEVVTQDERKALHTTASLRCSLKTSQEPLIVTWQKKKAVSPEAMVTYSKTHGVVIQPAYKDRINVTELGLWNSSITFWNTTLEDEGCYMCLFNTFGSQKVSGTACLTLYVQPIVHLHYNYFEDHLNITCSATARPAPAISWKGTGTGIENSTESHFHSNGTTSVTSILRVKDPKTQVGKEVICQVLYLGNVIDYKQSLDKGFWFSVPLLLSIVSLVILLVLISILLYWKRHRNQERGESSQGMQRMK [N74A] | disrupting interaction strength |
| MGSLVFRRPFCHLSTYSLIWGMAAVALSTAQVEVVTQDERKALHTTASLRCSLKTSQEPLIVTWQKKKAVSPENMVTYSKTHGVVIQPAYKDRINVTELGLWNSSITFWNTTLEDEGCYMCAFNTFGSQKVSGTACLTLYVQPIVHLHYNYFEDHLNITCSATARPAPAISWKGTGTGIENSTESHFHSNGTTSVTSILRVKDPKTQVGKEVICQVLYLGNVIDYKQSLDKGFWFSVPLLLSIVSLVILLVLISILLYWKRHRNQERGESSQGMQRMK [L122A] | disrupting interaction strength |
| MGSLVFRRPFCHLSTYSLIWGMAAVALSTAQVEVVTQDERKALHTTASLRCSLKTSQEPKIVTWQKKKAVSPENMVTYSKTHGVVIQPAYKDRINVTELGLWNSSITFWNTTLEDEGCYMCLFNTFGSQKVSGTACLTLYVQPIVHLHYNYFEDHLNITCSATARPAPAISWKGTGTGIENSTESHFHSNGTTSVTSILRVKDPKTQVGKEVICQVLYLGNVIDYKQSLDKGFWFSVPLLLSIVSLVILLVLISILLYWKRHRNQERGESSQGMQRMK [L60K] | disrupting interaction strength |
| MGSLVFRRPFCHLSTYSLIWGMAAVALSTAQVEVVTQDERKALHTTASLRCSLKTSQEPLEVTWQKKKAVSPENMVTYSKTHGVVIQPAYKDRINVTELGLWNSSITFWNTTLEDEGCYMCLFNTFGSQKVSGTACLTLYVQPIVHLHYNYFEDHLNITCSATARPAPAISWKGTGTGIENSTESHFHSNGTTSVTSILRVKDPKTQVGKEVICQVLYLGNVIDYKQSLDKGFWFSVPLLLSIVSLVILLVLISILLYWKRHRNQERGESSQGMQRMK [I61E] | disrupting interaction strength |

Other lines, results leading:

| effect of a mutation on the interaction | Variant |
| --- | --- |
| disrupting interaction strength | MGSLVFRRPFCHLSTYSLIWGMAAVALSTAQVEVVTQDERKALHTTASLRCSLKTSQEPLIVTWQKKKAVSPENMVTYSKTHGVVIQPAYKDRINVTELGLWNSSITFWNTTLEDEGCYMCLFKTFGSQKVSGTACLTLYVQPIVHLHYNYFEDHLNITCSATARPAPAISWKGTGTGIENSTESHFHSNGTTSVTSILRVKDPKTQVGKEVICQVLYLGNVIDYKQSLDKGFWFSVPLLLSIVSLVILLVLISILLYWKRHRNQERGESSQGMQRMK [N124K] |
| disrupting interaction strength | MGSLVFRRPFCHLSTYSLIWGMAAVALSTAQVEVVTQDERKALHTTASLRCSLKTSQEPLIVTWQKKKAVSPENMVTYSKTHGVVIQPAYKDRINVTELGLWNSSITFWNTTLEDEGCYMCLFNTDGSQKVSGTACLTLYVQPIVHLHYNYFEDHLNITCSATARPAPAISWKGTGTGIENSTESHFHSNGTTSVTSILRVKDPKTQVGKEVICQVLYLGNVIDYKQSLDKGFWFSVPLLLSIVSLVILLVLISILLYWKRHRNQERGESSQGMQRMK [F126D] |
| disrupting interaction strength | MGSLVFRRPFCHLSTYSLIWGMAAVALSTAQVEVVTQDERKALHTTASLRCSLKTSQEPLIVTWQKKKAVSPENMVTYSKTHGVVIQPAYKDRINVTELGLWNSSITFWNTTLEDEGCYMCLFNTAGSQKVSGTACLTLYVQPIVHLHYNYFEDHLNITCSATARPAPAISWKGTGTGIENSTESHFHSNGTTSVTSILRVKDPKTQVGKEVICQVLYLGNVIDYKQSLDKGFWFSVPLLLSIVSLVILLVLISILLYWKRHRNQERGESSQGMQRMK [F126A] |
| disrupting interaction strength | MGSLVFRRPFCHLSTYSLIWGMAAVALSTAQVEVVTQDERKALHTTASLRCSLKTSQEPLIVTWQKKKAVSPENMVTYSKTHGVVIQPAYKDRINVTELGLWNSSITFWNTTLEDEGCYMCLFNTFGSQEVSGTACLTLYVQPIVHLHYNYFEDHLNITCSATARPAPAISWKGTGTGIENSTESHFHSNGTTSVTSILRVKDPKTQVGKEVICQVLYLGNVIDYKQSLDKGFWFSVPLLLSIVSLVILLVLISILLYWKRHRNQERGESSQGMQRMK [K130E] |
